Measurements: patent US20140004122A1, “METHODS FOR TREATING OR PREVENTING CHOLESTEROL RELATED DISORDERS” (AMGEN INC., priority 2011, published 2014)

How the values were obtained:
D374Y PCSK9/LDLR binding = D374Y PCSK9/LDLR binding (Homo sapiens, UniProt Q8NBP7, D374Y); assay: Blocking D374Y PCSK9/LDLR binding (Example 9); conditions: 20 ng/ml biotinylated D374Y PCSK9
Experimental: Clear 384 well plates (Costar) were coated with 2 micrograms/ml of goat anti-LDL receptor antibody (R&D Systems) diluted in buffer A (100 mM sodium cacodylate, pH 7.4). Plates were washed thoroughly with buffer A and then blocked for 2 hours with buffer B (1% milk in buffer A). After washing, plates were incubated for 1.5 hours with 0.4 micrograms/ml of LDL receptor (R&D Systems) diluted in buffer C (buffer B supplemented with 10 mM CaCl2). […] The LDL receptor containing plates were washed and the biotinylated D374Y PCSK9/antibody mixture was transferred to them and incubated for 1 hour at room temperature. Binding of the biotinylated D374Y to the LDL receptor was detected by incubation with streptavidin-HRP (Biosource) at 500 ng/ml in buffer C followed by TMB substrate (KPL). The signal was quenched with 1N HCl and the absorbance read at 450 nm.

[1] = target: D374Y human PCSK9 (HepG2 cells) (Homo sapiens, UniProt Q8NBP7, D374Y); assay: Cell LDL uptake assay (Example 10); type: cell-based; conditions: 2 μg/ml D374Y human PCSK9, HepG2 cells
Experimental: Human HepG2 cells were seeded in black, clear bottom 96-well plates (Costar) at a concentration of 5×10^5 cells per well in DMEM medium (Mediatech, Inc) supplemented with 10% FBS and incubated at 37° C. (5% CO2) overnight. To form the PCSK9 and antibody complex, 2 μg/ml of D374Y human PCSK9 was incubated with various concentrations of antibody diluted in uptake buffer (DMEM with 1% FBS) or uptake buffer alone (control) for 1 hour at room temperature. After washing the cells with PBS, the D374Y PCSK9/antibody mixture was transferred to the cells, followed by LDL-BODIPY (Invitrogen) diluted in uptake buffer at a final concentration of 6 μg/ml. After incubation for 3 hours at 37° C. (5% CO2), cells were washed thoroughly with PBS and the cell fluorescence signal was detected by Safire™ (TECAN) at 480-520 nm (excitation) and 520-600 nm (emission).

[2] = target: D374Y PCSK9 binding to LDLR (Homo sapiens, UniProt Q8NBP7, D374Y); assay: Large scale receptor ligand blocking screen and functional classification of ABPs; conditions: functional assays of the screening
Experimental: To screen for the antibodies that block PCSK9 binding to LDLR an assay was developed using the D374Y PCSK9 mutant. […] The following protocol was employed in the receptor ligand blocking screen: Costar 3702 medium binding 384 well plates (Corning Life Sciences) were employed in the screen. The plates were coated with goat anti-LDLR (R&D Cat #AF2148) at 2 μg/ml in 1×PBS/0.05% Azide at a volume of 40 μl/well. The plates were incubated at 4° C. overnight. The plates were then washed using a Titertek plate washer (Titertek, Huntsville, Ala.). A 3-cycle wash was performed. The plates were blocked with 90 μl of 1×PBS/1% milk and incubated approximately 30 minutes at room temperature. The plates were then washed using the Titertek plate washer. A 3-cycle wash was performed. The capture sample was LDLR (R&D, Cat #2148LD/CF), and was added at 0.4 μg/ml in 1×PBS/1% milk/10 mM Ca^2+ at a volume of 40 μl/well. The plates were then incubated for 1 hour and 10 minutes at room temperature. Contemporaneously, 20 ng/ml of biotinylated human D374Y PCSK9 was incubated with 15 micro liters of hybridoma exhaust supernatant in Nunc polypropylene plates and the exhaust supernatant concentration was diluted 1:5. The plates were then pre-incubated for about 1 hour and 30 minutes at room temperature. Next, the plates were washed using the Titertek plate washer operated using a 3-cycle wash. 50 μl/well of the pre-incubated mixture was transferred onto the LDLR coated ELISA plates and incubated for 1 hour at room temperature. To detect LDLR-bound b-PCSK9, 40 μl/well streptavidin HRP at 500 ng/ml in assay diluent was added to the plates. The plates were incubated for 1 hour at room temperature. The plates were again washed using a Titertek plate washer. A 3-cycle wash was performed. Finally, 40 μl/well of One-step TMB (Neogen, Lexington, Ky.) was added to the plate and was quenched with 40 μl/well of 1N hydrochloric acid after 30 minutes at room temperature. OD's were read immediately at 450 nm using a Titertek plate reader.
The receptor ligand assay was then repeated using the mutant enzyme on the 384 member subset of neutralizers identified in the first large scale receptor ligand inhibition assay. The same protocol was employed in the screen of the 384 member blocker subset assay as was done in the large scale receptor ligand blocking screen.
Limiting dilution was used to isolate a manageable number of clones from each line. […] The isolated clones were each expanded in 50-100 ml of hybridoma media and allowed to grow to exhaustion, (i.e., less than about 10% cell viability). The concentration and potency of the antibodies to PCSK9 in the supernatants of those cultures were determined by ELISA and by in vitro functional testing, as described herein.

[3] = test system: wild type (WT) mice (C57BL/6); assay: Serum cholesterol and HDL in 13 day study; type: in vivo, mouse; conditions: 10 mg/kg, repeated 13 day study (FIG. 10C)
From the text: Male WT mice (C57BL/6 strain, aged 9-10 weeks, 17-27 g) obtained from Jackson Laboratory (Bar Harbor, Me.) were fed a normal chow (Harland-Teklad, Diet 2918) through out the duration of the experiment. […] Naïve mice were also set aside as naïve control group.
Animals were sacrificed and livers were extracted and prepared as in Example 11.
The HDL levels for the animals in Example 13 were also examined.

| Molecule | neutralizing ability (blocking PCSK9/LDLR) [2] | also measured |
| --- | --- | --- |
| 21B12 IgG2: human 21B12 IgG2 antibody produced from transfected cells (antibody) heavy: QVQLVQSGAEVKKPGASVKVSCKASGYTLTSYGISWVRQAPGQGLEWMGWVSFYNGNTNYAQKLQGRGTMTTDPSTSTAYMELRSLRSDDTAVYYCARGYGMDVWGQGTTVTVSSASTKGPSVFPLAPCSRSTSESTAALGCLVKDYFPEPVTVSWNSGALTSGVHTFPAVLQSSGLYSLSSVVTVPSSNFGTQTYTCNVDHKPSNTKVDKTVERKCCVECPPCPAPPVAGPSVFLFPPKPKDTLMISRTPEVTCVVVDVSHEDPEVQFNWYVDGVEVHNAKTKPREEQFNSTFRVVSVLTVVHQDWLNGKEYKCKVSNKGLPAPIEKTISKTKGQPREPQVYTLPPSREEMTKNQVSLTCLVKGFYPSDIAVEWESNGQPENNYKTTPPMLDSDGSFFLYSKLTVDKSRWQQGNVFSCSVMHEALHNHYTQKSLSLSPGK light: QSALTQPASVSGSPGQSITISCTGTSSDVGGYNSVSWYQQHPGKAPKLMIYEVSNRPSGVSNRFSGSKSGNTASLTISGLQAEDEADYYCNSYTSTSMVFGGGTKLTVLQPKAAPSVTLFPPSSEELQANKATLVCLISDFYPGAVTVAWKADSSPVKAGVETTTPSKQSNNKYAASSYLSLTPEQWKSHRSYSCQVTHEGSTVEKTVAPTECS | – | IC50 (D374Y PCSK9/LDLR binding): 0.17 nM; IC50 [1]: 13.3 nM |
| 3B6: anti-PCSK9 antibody; light/heavy variable region SEQ ID NO 46/60 (antibody, listed as Homo sapiens, V domains shown) VH: QVQLVQSGAEVKKPGASVKVSCKASGYTFTSYGISWVRQAPGQGLEWMGWISTYNGNTNYAQKVQGRVTMTTDTSTSTAYMELRSLRSDDTAVYYCARGYTRDYWGQGTLVTVSS VL: QPVLTQPLFASASLGASVTLTCTLSSGYSSYEVDWYQQRPGKGPRFVMRVDTGGIVGSKGEGIPDRFSVLGSGLNRYLTIKNIQEEDESDYHCGADHGSGTNFVVVFGGGTKLTVL | weak neutralizers | – |
| 13H1: anti-PCSK9 antibody; light/heavy variable region SEQ ID NO 28/91 (antibody, listed as Homo sapiens, V domains shown) VH: QVQLQQSGPGLVKPSQTLSLTCAISGDSVSSNSAAWNWIRQSPSRGLEWLGRTYYRSKWYKNYSVSVKSRITINPDTSKNQFSLQLNSVTPGDTAVYYCARGGPTAAFDYWGQGTLVTVSS VL: LSALTQPASVSGSPGQSITISCTGTSSDVGNYNLVSWYQQYSGKAPKLMIYEVSKRPSGVSNRFSGSKSGNTASLTISGLQAEDEADYYCCSYAGSSTLVFGGGTKLTVL | non-neutralizing | – |
| 13B5: anti-PCSK9 antibody; light/heavy variable region SEQ ID NO 42/69 (antibody, listed as Homo sapiens, V domains shown) VH: EVQLLESGGGLVQPGGSLRLSCAASGFTFSSYAMSWVRQAPGKGLEWVSTISGSGGRTYYADSVKGRFTISRDNSKNTLYLQMNSLRAEDTAVYYCAKEVGSPFDYWGQGTLVTVSS VL: QSVLTQPPSVSAAPGQKVTISCSGSNSNIGNNYVSWYQQLPGTAPKLLIYDNNKRPSGIPDRFSGSNSGTSATLGITGLQTGDEADYYCGTWDSSLSAVVFGGGTKLTVL | non-neutralizing | – |
| 16F12: anti-PCSK9 antibody; light/heavy variable region SEQ ID NO 35/79 (antibody, listed as Homo sapiens, V domains shown) VH: QVHLVESGGGVVQPGRSLRLSCAASGFTFNSFGMHWVRQAPGKGLEWVALIWSDGSDEYYADSVKGRFTISRDNSKNTLYLQMNSLRAEDTAVYYCARAIAALYYYYGMDVWGQGTTVTVSS VL: QSVLTQPPSVSAAPGQKVTISCSGSSSNIGNNFVSWYQQLPGTAPKLLIYDYNKRPSGIPDRFSGSKSGTSATLGITGLQTGDEADYYCGTWDSSLSAYVFGTGTRVTVL | – | total serum cholesterol after a single dose [3]: significant and substantial decreases in total serum cholesterol |

The next lines start with results.

| neutralizing ability (blocking PCSK9/LDLR) [2] | Molecule | also measured |
| --- | --- | --- |
| non-neutralizing | 27B2: anti-PCSK9 antibody; light/heavy variable region SEQ ID NO 13/87 (antibody, listed as Homo sapiens, V domains shown) VH: QVQLQESGPGLVKPSQTLSLTCTVSGGSISSGGYYWSWIRQHPGKGLEWIGYIYNSGSTYYNPSLKSRVTISVDTSKNQFSLKLSSVTAADTAVYYCAREDTAMVPYFDYWGQGTLVTVSS VL: QSVLTQPPSVSGAPGQRVTISCTGSSSNIGAHYDVHWYQQVPGTAPKLLIYGNTYRPSGVPDRFSGSKSGTSASLAITGLQAEDEADYYCQSYDNSLSGVVFGGGTKLTVL | – |
| neutralizing | 25A7: anti-PCSK9 antibody; light/heavy variable region SEQ ID NO 15/58; 25A7.3 referred to as 25A7 (antibody, listed as Homo sapiens, V domains shown) VH: QVQLVQSGAEVKKPGASVKVSCKASGYTFPSYGISWVRQAPGQGLEWMGWISAYNGNTNYAEKLQGRVTMTTDTSTSTAYMEVRSLRSDDTAVFYCARGYVMDVWGQGTTVTVSS VL: QSALTQPASVSGSPGQSITISCTGTSSDVGRYNSVSWYQHHPGKAPKVMIYEVSNRPSGVSTRFSGSKSGNTASLTISGLQAEDEADYYCSSYTSSSVVFGGGTKLTVL | – |
